Results taken from patent US20230235005A1 (INHIBRX, published 2023).

Key:
[1] = target: T1, heterotrimeric IL-2R (CD25, CD122 and CD132) on transiently transfected 293F cells (UniProt P01589 22-272; P14784 27-551; P31785 23-369, limits assumed); test: flow cytometry on transiently transfected 293F cells
T1 construct: whole, on cells
T1 sequence (looked up) 1: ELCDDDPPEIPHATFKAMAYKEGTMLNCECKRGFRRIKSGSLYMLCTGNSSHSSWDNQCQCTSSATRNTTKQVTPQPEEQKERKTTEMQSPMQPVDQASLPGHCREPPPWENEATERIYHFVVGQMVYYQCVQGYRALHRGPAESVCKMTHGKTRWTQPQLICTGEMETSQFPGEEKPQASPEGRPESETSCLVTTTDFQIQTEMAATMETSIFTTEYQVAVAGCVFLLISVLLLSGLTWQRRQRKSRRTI
T1 sequence (looked up) 2: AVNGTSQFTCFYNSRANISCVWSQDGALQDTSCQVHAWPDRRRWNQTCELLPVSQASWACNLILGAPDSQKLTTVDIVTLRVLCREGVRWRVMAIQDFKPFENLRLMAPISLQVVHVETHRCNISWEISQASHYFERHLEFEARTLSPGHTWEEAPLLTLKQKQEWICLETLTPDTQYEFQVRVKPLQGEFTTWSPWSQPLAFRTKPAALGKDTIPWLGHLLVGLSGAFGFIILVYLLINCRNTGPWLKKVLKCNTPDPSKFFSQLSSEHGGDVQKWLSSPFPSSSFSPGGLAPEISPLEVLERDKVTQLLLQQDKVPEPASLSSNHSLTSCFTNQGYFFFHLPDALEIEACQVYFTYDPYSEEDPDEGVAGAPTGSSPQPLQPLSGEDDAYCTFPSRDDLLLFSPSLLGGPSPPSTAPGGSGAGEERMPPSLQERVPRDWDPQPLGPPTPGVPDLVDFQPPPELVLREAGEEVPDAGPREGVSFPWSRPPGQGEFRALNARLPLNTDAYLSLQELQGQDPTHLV
T1 sequence (looked up) 3: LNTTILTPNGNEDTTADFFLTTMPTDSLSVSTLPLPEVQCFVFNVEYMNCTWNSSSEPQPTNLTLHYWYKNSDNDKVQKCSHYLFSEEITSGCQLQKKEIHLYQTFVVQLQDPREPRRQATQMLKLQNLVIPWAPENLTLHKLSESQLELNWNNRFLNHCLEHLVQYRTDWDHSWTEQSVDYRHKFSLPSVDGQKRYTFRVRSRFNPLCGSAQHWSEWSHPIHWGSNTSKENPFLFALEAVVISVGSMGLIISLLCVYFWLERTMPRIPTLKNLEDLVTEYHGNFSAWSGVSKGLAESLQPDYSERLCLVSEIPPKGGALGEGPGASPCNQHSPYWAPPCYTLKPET

[2] = target: T2, CD122/CD132 (heterodimeric IL-2R) on transiently transfected 293F cells (UniProt P14784 27-551; P31785 23-369, limits assumed); test: as above
T2 construct: whole, on cells; also called CD122 and CD132
T2 sequence (looked up) 1: T1 sequence (looked up) 2
T2 sequence (looked up) 2: T1 sequence (looked up) 3

binding result [1]: binds
binding result [2]: binds
B1: fusion protein comprising triple mutant IL-2 P65R-H16A-D84S (IL-2-RAS) fused to the N-terminus of the knob half of a heterodimeric Fc, paired with a hole Fc (Fc fusion)
chain 1: APTSSSTKKTQLQLEALLLDLQMILNGINNYKNPKLTRMLTFKFYMPKKATELKHLQCLEEELKRLEEVLNLAQSKNFHLRPRSLISNINVIVLELKGSETTFMCEYADETATIVEFLNRWITFCQSIISTLTPGGGGDKTHTCPPCPAPGGPSVFLFPPKPKDTLMISRTPEVTCVVVDVSHEDPEVKFNWYVDGVEVHNAKTKPREEQYNSTYRVVSVLTVLHQDWLNGKEYKCKVSNKALPAPIEKTISKAKGQPREPQVYTLPPCRDELTKNQVSLWCLVKGFYPSDIAVEWESNGQPENNYKTTPPVLDSDGSFFLYSKLTVDKSRWQQGNVFSCSVMHEALHNHYTQKSLSLSPGK
chain 2: KPGGGGDKTHTCPPCPAPGGPSVFLFPPKPKDTLMRSRTPEVTCVVVDVSHEDPEVKFNWYVDGVEVHNAKTKPREEQYNSTYRVVSVLTVLHQDWLNGKEYKCKVSNKALPAPIEKTISKAKGQPREPQVCTLPPSRDELTKNQVSLSCAVKGFYPSDIAVEWESNGQPENNYKTTPPVLDSDGSFFLVSKLTVDKSRWQQGNVFSCSVMHEALHNHYTQKSLSLSPGK
notes: also called IL-2-RAS-xELL knob Fc
